What was measured:
[1] = molecular target: hexon of Ad5.10 (Ad5 vector, hexon HVR1 replaced with the HVR1 of Ad6 hexon), on the virion (human adenovirus type 5) (UniProt P04133); assay: SPR; Biacore T200; about 300 to 5,000 RU of Ad virions immobilised on a CM5 chip, coagulation factors flowed over at four concentrations, 50 uL/min; 10 mM HEPES, 150 mM NaCl, 1 mM CaCl2, 0.5 mM MgCl2, 0.1% BSA, 0.05% polysorbate 20, pH 7.4; global fit to a 1:1 kinetic interaction model, double referencing
[2] = molecular target: chimeric hexon of Ad5:H57.1 (Ad5 vector, hexon residues 112-593 from Ad57 hexon), on the virion (human adenovirus type 5 | human adenovirus type 57) (UniProt P04133); assay: as above
[3] = molecular target: chimeric hexon of Ad5:H1.1 (Ad5 vector, hexon residues 112-593 from Ad1 hexon), on the virion (human adenovirus type 5 | human adenovirus type 1) (UniProt P04133); assay: as above
[4] = molecular target: chimeric hexon of Ad5:H6.1 (Ad5 vector, hexon residues 112-593 from Ad6 hexon), on the virion (human adenovirus type 5 | human adenovirus type 6) (UniProt P04133); assay: as above
[5] = molecular target: chimeric hexon of Ad5:H6.2 (Ad5 vector, hexon residues 112-593 from Ad6 hexon, HVR7 IGNTDTF), on the virion (human adenovirus type 5 | human adenovirus type 6) (UniProt P04133); assay: as above
[6] = molecular target: chimeric hexon of Ad5:H6.4 (Ad5 vector, hexon residues 112-593 from Ad6 hexon, HVR7 IGITDAF), on the virion (human adenovirus type 5 | human adenovirus type 6) (UniProt P04133); assay: as above
[7] = molecular target: chimeric hexon of the Ad5 vector Ad5:H1.6 (Ad1 hexon section with HVR7 mutations, on virions) (human adenovirus 5 | human adenovirus 1) (UniProt P04133); assay: SPR; Biacore T200; about 300 to 5,000 RU of Ad virions immobilised on a CM5 chip, coagulation factors flowed over at four concentrations, 50 uL/min; running buffer 10 mM HEPES, 150 mM NaCl, 1 mM CaCl2, 0.5 mM MgCl2, 0.1% BSA, 0.05% polysorbate 20, pH 7.4; regeneration with 3 mM EDTA; global fit to a 1:1 kinetic interaction model, double referencing
[8] = molecular target: chimeric hexon of the Ad5 vector Ad5:H6.3 (Ad6 hexon section with HVR7 mutations, on virions) (human adenovirus 5 | human adenovirus 6) (UniProt P04133); assay: as above
[9] = molecular target: chimeric hexon of the Ad5 vector Ad5:H6.2 (Ad6 hexon section with HVR7 mutations, on virions) (human adenovirus 5 | human adenovirus 6) (UniProt P04133); assay: as above
[10] = molecular target: chimeric hexon of the Ad5 vector Ad5:H6.4 (Ad6 hexon section with HVR7 mutations, on virions) (human adenovirus 5 | human adenovirus 6) (UniProt P04133); assay: as above

Substance	Kd [1]	Kd [2]	Kd [3]	Kd [4]	Kd [5]	Kd [6]	koff [7]	Kd [8]	koff [8]	kon [8]	Kd [9]	koff [9]	kon [9]	Kd [10]	koff [10]	kon [10]	Kd [7]	kon [7]
bovine coagulation factor X (from UniProt P00743 41-492) (natural protein)	276 nM	28 nM	220 nM	97 nM														
mouse prothrombin (coagulation factor II) (from UniProt P19221 44-618) (natural protein)	356 nM	10 nM	16 nM	8.6 nM	560 nM	32 µM	1.41 s⁻¹	1600 nM	0.0304 s⁻¹	19700 M⁻¹ s⁻¹	560 nM	0.012 s⁻¹	21300 M⁻¹ s⁻¹	32 µM	0.563 s⁻¹	17800 M⁻¹ s⁻¹		
mouse coagulation factor X (from UniProt O88947 41-481) (natural protein)	0.58 nM	0.65 nM	0.82 nM	0.31 nM	681 nM	0.095 µM	0.638 s⁻¹	1200 nM	0.26 s⁻¹	214000 M⁻¹ s⁻¹	681 nM	0.121 s⁻¹	178000 M⁻¹ s⁻¹	0.095 µM	0.0169 s⁻¹	178000 M⁻¹ s⁻¹	4.2 µM	152000 M⁻¹ s⁻¹
human coagulation factor X (from UniProt P00742 41-488) (natural protein)	1.1 nM	58 nM	300 nM	43 nM														

— publication PMC9536601
